Reference: patent US20180071366A1
Numbered stars: 1 amine (or outer) side, 2 acyl side, 3 side chain; on linkers, the order of the positions; unused ones are H or OH. Bridge positions count the residues as written; N and C are the ends. Square brackets hold non-standard residues; d marks the D form. * marks the point of attachment. C20 diacid = O=C(O)CCCCCCCCCCCCCCCCCCC(=O)*; γGlu = O=C(O)[C@H](CCC(=O)[*:2])N[*:1]; Hyp = O=C(O)[C@@H]1C[C@@H](O)CN1; NMeI = CC[C@H](C)[C@H](NC)C(=O)O; Aad = N[C@@H](CCCC(=O)O)C(=O)O; Orn = NCCC[C@H](N)C(=O)O; Sar = CNCC(=O)O

B1: Compound 27 (peptide)
peptide: {C20 diacid-γGlu}-RDGTAT[Orn]ATERLA[Aad]FLQRGTF[Sar]A[NMeI]LSSTEVGSNT[Hyp]-NH2
modifications: lactam 2-7
SMILES: CC[C@H](C)[C@@H](C(=O)N[C@@H](CC(C)C)C(=O)N[C@@H](CO)C(=O)N[C@@H](CO)C(=O)N[C@H](C(=O)N[C@@H](CCC(=O)O)C(=O)N[C@H](C(=O)NCC(=O)N[C@@H](CO)C(=O)N[C@@H](CC(N)=O)C(=O)N[C@H](C(=O)N1C[C@H](O)C[C@H]1C(N)=O)[C@@H](C)O)C(C)C)[C@@H](C)O)N(C)C(=O)[C@H](C)NC(=O)CN(C)C(=O)[C@H](Cc1ccccc1)NC(=O)[C@@H](NC(=O)CNC(=O)[C@H](CCCNC(=N)N)NC(=O)[C@H](CCC(N)=O)NC(=O)[C@H](CC(C)C)NC(=O)[C@H](Cc1ccccc1)NC(=O)[C@H](CCCC(=O)O)NC(=O)[C@H](C)NC(=O)[C@H](CC(C)C)NC(=O)[C@H](CCCNC(=N)N)NC(=O)[C@H](CCC(=O)O)NC(=O)[C@@H](NC(=O)[C@H](C)NC(=O)[C@@H]1CCCNC(=O)C[C@H](NC(=O)[C@H](CCCNC(=N)N)NC(=O)CC[C@H](NC(=O)CCCCCCCCCCCCCCCCCCC(=O)O)C(=O)O)C(=O)NCC(=O)N[C@@H]([C@@H](C)O)C(=O)N[C@@H](C)C(=O)N[C@@H]([C@@H](C)O)C(=O)N1)[C@@H](C)O)[C@@H](C)O
B2: Compound 24 (peptide)
peptide: {C20 diacid-γGlu}-RDGTAT[Orn]ATERLA[Aad]FLQRTTF[Sar]A[NMeI]PSSTEVGSNT[Hyp]-NH2
modifications: lactam 2-7
SMILES: CC[C@H](C)[C@@H](C(=O)N1CCC[C@H]1C(=O)N[C@@H](CO)C(=O)N[C@@H](CO)C(=O)N[C@H](C(=O)N[C@@H](CCC(=O)O)C(=O)N[C@H](C(=O)NCC(=O)N[C@@H](CO)C(=O)N[C@@H](CC(N)=O)C(=O)N[C@H](C(=O)N1C[C@H](O)C[C@H]1C(N)=O)[C@@H](C)O)C(C)C)[C@@H](C)O)N(C)C(=O)[C@H](C)NC(=O)CN(C)C(=O)[C@H](Cc1ccccc1)NC(=O)[C@@H](NC(=O)[C@@H](NC(=O)[C@H](CCCNC(=N)N)NC(=O)[C@H](CCC(N)=O)NC(=O)[C@H](CC(C)C)NC(=O)[C@H](Cc1ccccc1)NC(=O)[C@H](CCCC(=O)O)NC(=O)[C@H](C)NC(=O)[C@H](CC(C)C)NC(=O)[C@H](CCCNC(=N)N)NC(=O)[C@H](CCC(=O)O)NC(=O)[C@@H](NC(=O)[C@H](C)NC(=O)[C@@H]1CCCNC(=O)C[C@H](NC(=O)[C@H](CCCNC(=N)N)NC(=O)CC[C@H](NC(=O)CCCCCCCCCCCCCCCCCCC(=O)O)C(=O)O)C(=O)NCC(=O)N[C@@H]([C@@H](C)O)C(=O)N[C@@H](C)C(=O)N[C@@H]([C@@H](C)O)C(=O)N1)[C@@H](C)O)[C@@H](C)O)[C@@H](C)O
B3: Compound 28 (peptide)
peptide: {C20 diacid-γGlu}-RDQTAT[Orn]ATERLA[Aad]FLQRGTF[Sar]A[NMeI]LSSTEVGSNT[Hyp]-NH2
modifications: lactam 2-7
SMILES: CC[C@H](C)[C@@H](C(=O)N[C@@H](CC(C)C)C(=O)N[C@@H](CO)C(=O)N[C@@H](CO)C(=O)N[C@H](C(=O)N[C@@H](CCC(=O)O)C(=O)N[C@H](C(=O)NCC(=O)N[C@@H](CO)C(=O)N[C@@H](CC(N)=O)C(=O)N[C@H](C(=O)N1C[C@H](O)C[C@H]1C(N)=O)[C@@H](C)O)C(C)C)[C@@H](C)O)N(C)C(=O)[C@H](C)NC(=O)CN(C)C(=O)[C@H](Cc1ccccc1)NC(=O)[C@@H](NC(=O)CNC(=O)[C@H](CCCNC(=N)N)NC(=O)[C@H](CCC(N)=O)NC(=O)[C@H](CC(C)C)NC(=O)[C@H](Cc1ccccc1)NC(=O)[C@H](CCCC(=O)O)NC(=O)[C@H](C)NC(=O)[C@H](CC(C)C)NC(=O)[C@H](CCCNC(=N)N)NC(=O)[C@H](CCC(=O)O)NC(=O)[C@@H](NC(=O)[C@H](C)NC(=O)[C@@H]1CCCNC(=O)C[C@H](NC(=O)[C@H](CCCNC(=N)N)NC(=O)CC[C@H](NC(=O)CCCCCCCCCCCCCCCCCCC(=O)O)C(=O)O)C(=O)N[C@@H](CCC(N)=O)C(=O)N[C@@H]([C@@H](C)O)C(=O)N[C@@H](C)C(=O)N[C@@H]([C@@H](C)O)C(=O)N1)[C@@H](C)O)[C@@H](C)O
B4: Compound 3 (peptide)
peptide: {C20 diacid-γGlu}-RDGTAT[Orn]ATERLAHFLQRSSF[Sar]A[NMeI]LSSTEVGSNT[Hyp]-NH2
modifications: lactam 2-7
SMILES: CC[C@H](C)[C@@H](C(=O)N[C@@H](CC(C)C)C(=O)N[C@@H](CO)C(=O)N[C@@H](CO)C(=O)N[C@H](C(=O)N[C@@H](CCC(=O)O)C(=O)N[C@H](C(=O)NCC(=O)N[C@@H](CO)C(=O)N[C@@H](CC(N)=O)C(=O)N[C@H](C(=O)N1C[C@H](O)C[C@H]1C(N)=O)[C@@H](C)O)C(C)C)[C@@H](C)O)N(C)C(=O)[C@H](C)NC(=O)CN(C)C(=O)[C@H](Cc1ccccc1)NC(=O)[C@H](CO)NC(=O)[C@H](CO)NC(=O)[C@H](CCCNC(=N)N)NC(=O)[C@H](CCC(N)=O)NC(=O)[C@H](CC(C)C)NC(=O)[C@H](Cc1ccccc1)NC(=O)[C@H](Cc1c[nH]cn1)NC(=O)[C@H](C)NC(=O)[C@H](CC(C)C)NC(=O)[C@H](CCCNC(=N)N)NC(=O)[C@H](CCC(=O)O)NC(=O)[C@@H](NC(=O)[C@H](C)NC(=O)[C@@H]1CCCNC(=O)C[C@H](NC(=O)[C@H](CCCNC(=N)N)NC(=O)CC[C@H](NC(=O)CCCCCCCCCCCCCCCCCCC(=O)O)C(=O)O)C(=O)NCC(=O)N[C@@H]([C@@H](C)O)C(=O)N[C@@H](C)C(=O)N[C@@H]([C@@H](C)O)C(=O)N1)[C@@H](C)O
B5: Compound 25 (peptide)
peptide: {C20 diacid-γGlu}-RDGTAT[Orn]ATERLA[Aad]FLQRATF[Sar]A[NMeI]LSSTEVGSNT[Hyp]-NH2
modifications: lactam 2-7
SMILES: CC[C@H](C)[C@@H](C(=O)N[C@@H](CC(C)C)C(=O)N[C@@H](CO)C(=O)N[C@@H](CO)C(=O)N[C@H](C(=O)N[C@@H](CCC(=O)O)C(=O)N[C@H](C(=O)NCC(=O)N[C@@H](CO)C(=O)N[C@@H](CC(N)=O)C(=O)N[C@H](C(=O)N1C[C@H](O)C[C@H]1C(N)=O)[C@@H](C)O)C(C)C)[C@@H](C)O)N(C)C(=O)[C@H](C)NC(=O)CN(C)C(=O)[C@H](Cc1ccccc1)NC(=O)[C@@H](NC(=O)[C@H](C)NC(=O)[C@H](CCCNC(=N)N)NC(=O)[C@H](CCC(N)=O)NC(=O)[C@H](CC(C)C)NC(=O)[C@H](Cc1ccccc1)NC(=O)[C@H](CCCC(=O)O)NC(=O)[C@H](C)NC(=O)[C@H](CC(C)C)NC(=O)[C@H](CCCNC(=N)N)NC(=O)[C@H](CCC(=O)O)NC(=O)[C@@H](NC(=O)[C@H](C)NC(=O)[C@@H]1CCCNC(=O)C[C@H](NC(=O)[C@H](CCCNC(=N)N)NC(=O)CC[C@H](NC(=O)CCCCCCCCCCCCCCCCCCC(=O)O)C(=O)O)C(=O)NCC(=O)N[C@@H]([C@@H](C)O)C(=O)N[C@@H](C)C(=O)N[C@@H]([C@@H](C)O)C(=O)N1)[C@@H](C)O)[C@@H](C)O
B6: Compound 23 (peptide)
peptide: {C20 diacid-γGlu}-RDGTAT[Orn]ATERLA[Aad]FLQRTTF[Sar]A[NMeI]LSSTEVGSNT[Hyp]-NH2
modifications: lactam 2-7
SMILES: CC[C@H](C)[C@@H](C(=O)N[C@@H](CC(C)C)C(=O)N[C@@H](CO)C(=O)N[C@@H](CO)C(=O)N[C@H](C(=O)N[C@@H](CCC(=O)O)C(=O)N[C@H](C(=O)NCC(=O)N[C@@H](CO)C(=O)N[C@@H](CC(N)=O)C(=O)N[C@H](C(=O)N1C[C@H](O)C[C@H]1C(N)=O)[C@@H](C)O)C(C)C)[C@@H](C)O)N(C)C(=O)[C@H](C)NC(=O)CN(C)C(=O)[C@H](Cc1ccccc1)NC(=O)[C@@H](NC(=O)[C@@H](NC(=O)[C@H](CCCNC(=N)N)NC(=O)[C@H](CCC(N)=O)NC(=O)[C@H](CC(C)C)NC(=O)[C@H](Cc1ccccc1)NC(=O)[C@H](CCCC(=O)O)NC(=O)[C@H](C)NC(=O)[C@H](CC(C)C)NC(=O)[C@H](CCCNC(=N)N)NC(=O)[C@H](CCC(=O)O)NC(=O)[C@@H](NC(=O)[C@H](C)NC(=O)[C@@H]1CCCNC(=O)C[C@H](NC(=O)[C@H](CCCNC(=N)N)NC(=O)CC[C@H](NC(=O)CCCCCCCCCCCCCCCCCCC(=O)O)C(=O)O)C(=O)NCC(=O)N[C@@H]([C@@H](C)O)C(=O)N[C@@H](C)C(=O)N[C@@H]([C@@H](C)O)C(=O)N1)[C@@H](C)O)[C@@H](C)O)[C@@H](C)O
B7: Compound 26 (peptide)
peptide: {C20 diacid-γGlu}-RDGTAT[Orn]ATERLA[Aad]FLQRAAF[Sar]A[NMeI]LSSTEVGSNT[Hyp]-NH2
modifications: lactam 2-7
SMILES: CC[C@H](C)[C@@H](C(=O)N[C@@H](CC(C)C)C(=O)N[C@@H](CO)C(=O)N[C@@H](CO)C(=O)N[C@H](C(=O)N[C@@H](CCC(=O)O)C(=O)N[C@H](C(=O)NCC(=O)N[C@@H](CO)C(=O)N[C@@H](CC(N)=O)C(=O)N[C@H](C(=O)N1C[C@H](O)C[C@H]1C(N)=O)[C@@H](C)O)C(C)C)[C@@H](C)O)N(C)C(=O)[C@H](C)NC(=O)CN(C)C(=O)[C@H](Cc1ccccc1)NC(=O)[C@H](C)NC(=O)[C@H](C)NC(=O)[C@H](CCCNC(=N)N)NC(=O)[C@H](CCC(N)=O)NC(=O)[C@H](CC(C)C)NC(=O)[C@H](Cc1ccccc1)NC(=O)[C@H](CCCC(=O)O)NC(=O)[C@H](C)NC(=O)[C@H](CC(C)C)NC(=O)[C@H](CCCNC(=N)N)NC(=O)[C@H](CCC(=O)O)NC(=O)[C@@H](NC(=O)[C@H](C)NC(=O)[C@@H]1CCCNC(=O)C[C@H](NC(=O)[C@H](CCCNC(=N)N)NC(=O)CC[C@H](NC(=O)CCCCCCCCCCCCCCCCCCC(=O)O)C(=O)O)C(=O)NCC(=O)N[C@@H]([C@@H](C)O)C(=O)N[C@@H](C)C(=O)N[C@@H]([C@@H](C)O)C(=O)N1)[C@@H](C)O

These binders were tested against recombinant human amylin 3 receptor (hAMYR3) (human), P30988 (assay: cell-based or functional assay).
recombinant human amylin 3 receptor (hAMYR3) (human), P30988, sequence (P30988 25-474, chain 1 of 2): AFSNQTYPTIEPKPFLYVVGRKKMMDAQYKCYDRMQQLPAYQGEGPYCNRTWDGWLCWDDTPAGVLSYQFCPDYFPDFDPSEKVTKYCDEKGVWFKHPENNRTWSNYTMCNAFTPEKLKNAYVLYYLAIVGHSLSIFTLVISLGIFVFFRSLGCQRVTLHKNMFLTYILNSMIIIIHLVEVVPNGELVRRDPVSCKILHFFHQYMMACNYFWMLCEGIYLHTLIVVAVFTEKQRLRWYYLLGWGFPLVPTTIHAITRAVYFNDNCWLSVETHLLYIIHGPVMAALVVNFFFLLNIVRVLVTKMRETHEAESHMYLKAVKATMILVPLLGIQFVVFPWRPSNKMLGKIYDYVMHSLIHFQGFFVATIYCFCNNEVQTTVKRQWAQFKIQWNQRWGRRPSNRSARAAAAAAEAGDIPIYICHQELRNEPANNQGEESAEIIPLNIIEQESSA
recombinant human amylin 3 receptor (hAMYR3) (human), P30988, sequence (O60896 24-148, chain 2 of 2, further chain): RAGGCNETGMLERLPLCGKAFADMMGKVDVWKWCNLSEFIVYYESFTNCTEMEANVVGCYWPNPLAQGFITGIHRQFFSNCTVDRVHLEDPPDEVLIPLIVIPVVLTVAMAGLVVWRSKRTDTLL

Row | hAMYR3 EC50 [nM] (cAMP formation, 1321N1 cells expressing hAMYR3) | Binder
1 | 0.325 | B1
2 | 0.013 | B2
3 | 0.268 | B3
4 | 0.035 | B4
5 | 0.336 | B5
6 | 0.706 | B6
7 | 0.12 | B7

These binders were tested against recombinant human calcitonin receptor (hCT-R) (human), P30988 (assay: cell-based or functional assay).
recombinant human calcitonin receptor (hCT-R) (human), P30988, sequence (P30988 25-474): as the sequence (P30988 25-474, chain 1 of 2) above

Row | hCT-R EC50 [nM] (cAMP formation, 1321N1 cells expressing hCT-R) | Binder
8 | 0.521 | B1
9 | 0.038 | B2
10 | 1.23 | B3
11 | 0.081 | B4
12 | 0.844 | B5
13 | 1.93 | B6
14 | 0.769 | B7
